From patent US20210179698A1 (AstraZeneca / MedImmune, published 2021)

Legend:
[1] = biological target: disease relevant pathological forms of human α-syn in Parkinson's disease brain tissue (human, UniProt P37840 1-140); experiment: immunohistochemistry of Parkinson's disease brain tissue
1-95 = biological target: T1, 1-95 (human, UniProt P37840); experiment: ELISA on coated α-syn truncates, anti-human IgG-HRP detection
T1 construct: residues 1-95, N-terminal and NAC regions; coated on ELISA wells; also called α-syn truncate 1-95; aa1-95
Method: (§1) Briefly, one microgram per milliliter of each truncate was coated to a microtitre well overnight at 4° C. […] Following 1 h incubation and washing the bound antibody was detected by addition of an anti-human IgG conjugated to either HRP or Eu³⁺. Subsequent to incubation and washing, the appropriate detection substrate was added (TMB or DELFIA Enhancer solution respectively) and the plate read on a microtitre plate reader.

NCAP = biological target: T2, NCAP (human, UniProt P37840-2); experiment: as above
T2 construct: alternatively spliced form missing amino acids 103-129; coated on ELISA wells; also called alternatively spliced form of α-syn missing amino acids 103-129
Method: as §1

1-60 = biological target: T3, 1-60 (human, UniProt P37840); experiment: as above
T3 construct: residues 1-60, N-terminal region only; coated on ELISA wells; also called α-syn truncate 1-60; aa1-60
Method: as §1

[2] = biological target: native, endogenously expressed intracellular human α-syn in SH-SY5Y neuroblastoma cells (human, UniProt P37840 1-140); experiment: flow cytometry on fixed, permeabilised SH-SY5Y cells, anti-human IgG-FITC
Method: After extensive washes, bound antibody was detected by incubation with an anti-human or anti-mouse IgG-FITC secondary antibody. Following further washes the cells were analyzed with a FACS Canto II apparatus (Becton Dickinson, Franklin Lakes, N.J.) and data analysis was performed using FlowJo Software (Tree Star, Ashland, Oreg.).

ΔNAC = biological target: T4, ΔNAC (human, UniProt P37840); experiment: ELISA on coated α-syn truncates (1 µg/ml coat, 1 µg/ml antibody), anti-human IgG-HRP detection
T4 construct: NAC region deleted; coated on ELISA wells; also called ANAC; α-syn with NAC region deleted
Method: as §1

61-140 = biological target: T5, 61-140 (human, UniProt P37840); experiment: as above
T5 construct: residues 61-140, NAC plus C-terminal region; coated on ELISA wells; also called α-syn truncate 61-140; aa61-140
Method: as §1

[3] = biological target: human alpha-synuclein (recombinant) (human, UniProt P37840 1-140); experiment: as above
Method: as §1

96-140 = biological target: T6, 96-140 (human, UniProt P37840); experiment: as above
T6 construct: residues 96-140, C-terminal region only; coated on ELISA wells; also called α-syn truncate 96-140; C-terminal region only
Method: as §1

rat α-syn = rat α-syn (rat, UniProt P37377 1-140); experiment: direct binding HTRF assay
aggregated human α-syn = aggregated human α-syn (human, UniProt P37840 1-140); experiment: DELFIA pair-wise capture ELISA: mouse IgG1 version of the antibody as capture, human IgG1 TM version of the same antibody as detection, anti-human IgG-Eu
Method: Subsequent to incubation and washing, the appropriate detection substrate was added (TMB or DELFIA Enhancer solution respectively) and the plate read on a microtitre plate reader.

[4] = biological target: T7, human gamma-synuclein (recombinant) (human, UniProt O76070 1-127); experiment: HTRF epitope competition: unlabelled synuclein titrated against biotinylated human α-syn for binding to aslo0543
T7 construct: also called γ-syn; γ-synuclein
Method: (§2) IC₅₀ values were determined by curve fitting the data to a four parameter logistic equation using PRISM 6® software (Graphpad). […] For the negative control, the antibody test sample was replaced with an isotype control antibody or buffer only.

[5] = biological target: T8, human beta-synuclein (recombinant) (human, UniProt Q16143 1-134); experiment: as above
T8 construct: also called β-syn; β-synuclein
Method: as §2

[6] = biological target: T7, human gamma-synuclein (recombinant); experiment: HTRF epitope competition: unlabelled synuclein titrated against biotinylated human α-syn for binding to aslo0452 ngl-3
Method: as §2

[7] = biological target: T8, human beta-synuclein (recombinant); experiment: as above
Method: as §2

Row | binding result [1] | binding result [2] | binding result (ΔNAC) | binding result (61-140) | binding result [3] | binding result (96-140) | binding result (rat α-syn) | binding result (aggregated human α-syn) | binding result [4] | binding result [5] | binding result [6] | binding result [7] | Binder | binding result (1-95) | binding result (NCAP) | binding result (1-60)
1 | binds | binds | binds | binds | binds | binds | binds | binds | no binding | no binding | – | – | aslo0543 (antibody, human IgG1, lambda, V domains shown, also called aslo0543 IgG) VH: not shown VL: QAVLTQPASLSASPGASASLTCTLRSSGDFSRYRIYWYQQKPGSPPQYLLRYKSDADKHQGSGVPSRFSGSKDASANAGILLISGLQSEDEADYYCMVWSSGAWYFGGGTKLTVLG | no binding (tested: 1 µg/ml (single concentration)) | no binding (tested: 1 µg/ml (single concentration)) | no binding (tested: 1 µg/ml (single concentration))
2 | – | – | binds | – | – | binds | – | – | – | – | no binding | no binding | aslo0452 ngl-3 (antibody, human IgG1, lambda, V domains shown, also called aslo0452 ngl-3 IgG; aslo0452-ngl3-hIgG1TM) VH: EVQLLESGGGLVQPGGSLRLSCAASGFTFSSYAMSWVRQAPGKGLEWVSSISHLGGSTYYADSVKGRFTISRDNSKNTLYLQMNSLRAEDTAVYYCAGGANHGKYYYGMDKWGQGTTVTVSS VL: QAVLTQPASLSASPGASASLTCTLRSGAPLPKYRIYWYQQKPGSPPQYLLRYKSDADKHQGSGVPSRFSGSKDASANAGILLISGLQSEDEADYYCMVWDHGVWYFGGGTKLTVLG | – | – | no binding (tested: 1 µg/ml (single concentration))
